Assay results: PMC10323027, “Glucagon-like peptide 1 aggregates into low-molecular-weight oligomers off-pathway to fibrillation” (Biophysical Journal, 2023)
Where “and” joins values, the source holds several entries; their conditions need not be identical. Identical values can stand only once.

Molecular target: the molecule itself
Assay: SEC; peptide at 43, 85 or 150 uM incubated in aqueous buffer at pH 7.0 or 8.0 at 37°C with 180 rpm agitation, aliquots filtered (0.22 um) and run on Superose 12 10/300 or Superdex 75 10/300 at room temperature, 0.75 mL/min, elution buffer as incubation buffer; oligomer size from calibration with globular protein standards

B1: Glucagon-like peptide 1, GLP-1(7–37) (peptide)
chain: HAEGTFTSDVSSYLEGQAAKEFIAWLVKGRG
notes: Glucagon-like peptide 1 (7-37), 31-residue peptide hormone cut from proglucagon; free C-terminus (-OH); 3355 Da; Forms non-covalent low-molecular-weight oligomers of varying size; written as the single chain
In the case of B1, the “stoichiometry N” value is reported as 3 and 5.
